Source: article PMC9117644 (Frontiers in Bioengineering and Biotechnology, 2022)

Molecular target: T1, human TLR4 ectodomain (S2-derived) (human, UniProt O00206 23-629)
T1 construct: human toll-like receptor 4 ectodomain, UniProtKB O00206, P23-M629, Drosophila codon-optimized; Cloned into pExpreS2-1-CRPA (Addgene #175445): N-terminal BiP signal peptide for secretion, C-terminal thrombin-cleavable Protein A tag; a few residues of the thrombin site probably remain after cleavage; also called toll-like receptor 4; Drosophila-derived TLR4; source: purified (IgG Sepharose, …)
T1 sequence (O00206 23-629): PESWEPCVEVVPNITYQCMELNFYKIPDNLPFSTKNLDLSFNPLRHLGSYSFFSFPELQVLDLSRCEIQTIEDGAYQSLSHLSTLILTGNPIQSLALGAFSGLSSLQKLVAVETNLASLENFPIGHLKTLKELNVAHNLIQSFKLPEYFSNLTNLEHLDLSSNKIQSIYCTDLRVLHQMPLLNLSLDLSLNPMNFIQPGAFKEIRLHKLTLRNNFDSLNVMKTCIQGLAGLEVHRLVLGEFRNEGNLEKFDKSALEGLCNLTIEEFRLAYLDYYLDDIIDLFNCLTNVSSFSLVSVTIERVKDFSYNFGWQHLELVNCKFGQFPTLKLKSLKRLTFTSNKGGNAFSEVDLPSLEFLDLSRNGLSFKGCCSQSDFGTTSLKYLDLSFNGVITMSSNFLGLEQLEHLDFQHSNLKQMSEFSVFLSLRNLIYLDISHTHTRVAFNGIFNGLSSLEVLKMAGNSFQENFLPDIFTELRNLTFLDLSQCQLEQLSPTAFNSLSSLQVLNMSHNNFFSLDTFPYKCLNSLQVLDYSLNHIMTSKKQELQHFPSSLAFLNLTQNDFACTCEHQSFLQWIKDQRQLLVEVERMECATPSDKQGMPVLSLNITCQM
Test: SEC; analytical SEC, Superdex 200 Increase 30/100 on a Dionex Ultimate 3000 UHPLC; 100-µl injections of 200 µg TLR4, 400 µg MD-2, or 200 µg TLR4 + 400 µg MD-2; A280 traces
Conditions: both partners purified

binding result: binds
B1: human MD-2 (S2-derived, Protein A tagged) (natural protein, UniProt Q9Y6Y9 19-160, looked up)
chain: QKQYWVCNSSDASISYTYCDKMQYPISINVNPCIELKRSKGLLHIFYIPRRDLKQLYFNLYITVNTMNLPKRKEVICRGSDDDYSFCRALKGETVNTTISFSFKGIKFSKGKYKCVVEAISGSPEEMLFCLEFVILHQPNSN
notes: human lymphocyte antigen 96 (MD-2), UniProtKB Q9Y6Y9, Q19-N160, Drosophila codon-optimized; Cloned into pExpreS2-1-CRPA (Addgene #175445): N-terminal BiP signal peptide for secretion, thrombin site and Protein A at the C-terminus; the tag was routinely left on for stability; also called lymphocyte antigen 96; source: purified (IgG Sepharose, SEC); not shown: Protein A, C-terminal, kept
